According to patent US20160237154A1 (SORRENTO THERAPEUTICS, published 2016):

Assays:
[1] = target: T1, Recombinant human CTLA4/His (human, UniProt P16410 36-162, limits assumed); assay: SPR (BiaCore), antibody captured on anti-human Fc, His-tagged analyte, 1:1 model
T1 construct: not shown: His tag
T1 sequence (looked up): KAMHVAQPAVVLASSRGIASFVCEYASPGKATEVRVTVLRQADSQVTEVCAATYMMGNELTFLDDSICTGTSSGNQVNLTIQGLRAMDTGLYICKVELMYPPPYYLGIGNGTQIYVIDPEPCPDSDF
Procedure: The affinity of antibody CT1E1 for human CTLA4 was also determined using surface plasmon resonance (BiaCore). Anti-human Fc antibody (GE, BR-1008-39) was immobilized on CM5 sensor chip to approximately 1000 RU using standard NHS/EDC coupling methodology. Antibodies (about 10 μg/ml) were captured for 60 s at a flow rate 10 ul/min Recombinant human […] was serially diluted in running buffer (HBS-EP). All measurements were conducted in HBS-EP buffer with a flow rate of 30 μL/min. The antibody was diluted appropriately to obtain a series of concentrations. A 1:1 (Langmuir) binding model was used to fit the data. The Chi2 (chi-squared) value was used as a guideline for fitting quality. Results from the affinity studies are provided below in Table 2.

mouse CTLA4/His = target: T2, mouse CTLA4/His (mouse, UniProt P09793 36-162, limits assumed); assay: ELISA, CTLA4/His captured on Ni-NTA plate, antibody ~1 ug/mL, anti-human Fc-HRP
T2 construct: also called murine CTLA4; not shown: His tag
Procedure: Using a 96-well Ni-NTA plate recombinant human CTLA4/His, cynomolgus CTLA4/His or mouse CTLA4/His @ 1 μg/mL were captured. The plate was incubated for 30 min at room temperature, washed 3 times with PBS-Tween (PBST), then anti-CTLA4 antibodies (˜1 μg/mL) diluted in casein were added and incubated for 30 min with shaking. The plate was washed 3 times with PBST, horseradish peroxidase (HRP)-conjugated goat anti-human Fc (1:500 in casein) was added, then 3,3′,5,5′-Tetramethylbenzidine (TMB) was added as substrate and developed about 5 min. 2M H₂SO₄ was used to stop the reaction and the OD was read at 450 nm.

[2] = target: T3, recombinant human CTLA4 (as human Fc fusion) (human, UniProt P16410 37-162, limits assumed); assay: blocking ELISA: serially diluted IgG pre-mixed with recombinant human CTLA4-Fc, transferred to a Ni-NTA plate coated with His-tagged human CD80 (the blocked ligand); HRP anti-human Fc, OD 450
T3 construct: not shown: human Fc
T3 sequence (looked up): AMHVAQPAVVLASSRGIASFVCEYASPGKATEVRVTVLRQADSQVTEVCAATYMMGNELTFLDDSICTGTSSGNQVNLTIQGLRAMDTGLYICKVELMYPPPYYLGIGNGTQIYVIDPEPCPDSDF
Procedure: (§1) Assays were performed to determine the ability of antibody CT1E1 to inhibit CD80 and CD86 activity. A 96-well Ni-NTA plate was coated with 1 μg/mL recombinant human CD80 or CD86 with hexahistidine tag at room temperature for 1 h. Pre-mixed 30 μL serial 3-fold diluted IgGs (started from 25 μg/mL) and 30 μL of […] recombinant human CTLA4 (as human Fc fusion) and incubated the mixtures for 30 minutes, then washed the plate with PBS-Tween (PBST) 3 times. The mixtures were transferred 50 μL to the ELISA plate and incubated 30 min with shaking. The plate was washed 3 times with PBST, then horseradish peroxidase (HRP)-conjugated goat anti-human Fc (1:500 in casein) was added, then 3,3′,5,5′-Tetramethylbenzidine (TMB) was added as substrate and developed 30 min. 2M H₂SO₄ was used to stop the reaction and the OD was read at 450 nm.

[3] = target: T3, recombinant human CTLA4 (as human Fc …); assay: blocking ELISA: serially diluted IgG pre-mixed with recombinant human CTLA4-Fc, transferred to a Ni-NTA plate coated with His-tagged human CD86 (the blocked ligand); HRP anti-human Fc, OD 450
Procedure: as §1

B1: CT1E1 (antibody, V domains shown)
VH: EVQLVESGGGLVQPGRSLRLSCRGSNFNFDDLAISWVRQAPGKGLEWLGFVRSKAYGETTDYVASVKGRFTISRDDSKFIAWLQMDSLKTDDTAVYYCTTFNYWGQGTLVTVSS
VL: QPVLTQPPSVSVAPGKTARISCGGNNIASEAVHWYQKKPGQAPVLVIYYDSDRPSGIPERFSGSNSGNTATLRISRVDAGDEADYYCQVWDRTTDQPVFGGGTKLTVL
notes: also called human anti-CTLA4 antibody CT1E1
Kd [1]: 1.81 nM | koff [1]: 0.000242 s⁻¹ | kon [1]: 133000 M⁻¹ s⁻¹ | binding result (mouse CTLA4/His): binds | IC50 [2]: 0.313 nM | IC50 [3]: 0.329 nM
